The results in this text go back to the supplement of paper PMC12042874.

± gives the uncertainty stated by the source.

A short description of this data set: amyloid nucleation score (Sup35N fusion, yeast selection) (log enrichment); library NNK2; higher = more nucleation; inactive = no reads after selection. In a few lines: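 The nucleation score is the DiMSum log enrichment of output over input reads, centred on the mode score of non-aggregating sequences. Only sequences with 100 or more input reads were scored, using Illumina sequencing of input and output plasmid inserts. Psi-negative yeast expressing Sup35N fused to peptides of 20 random codons were induced 24 hours with 100 μM copper sulfate and grown 7 days at 30°C on medium lacking adenine and uracil.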
Substance NCGLWNISMCPGDNLSSWDG displayed an amyloid nucleation score of 7.46 ± 0.039.
For NCKMVMIGCDRNYL the value was -1.37 ± 1.1; for NCVNPDYGLLQQLSRYLVVC, -0.764 ± 0.64; for NCYSRALYSPCSPFLLTN, -1.73 ± 0.41.
The result for NDCGSNDRLSNTFFWFLLFG reads 0.142 ± 0.65; that for NDDTDQLSTSSIGRRMRMR, 0.662 ± 0.81; that for NDIMYSVSSYCWWSFRSSVF, 2.06 ± 0.15.
For NDMFLSYLHSPWYNVLCDFI the value was -1.29 ± 0.49; for NDMVRAISRKGIVSIHRRTR, 0.724 ± 0.45.
NDTSYGAQRRVCSTFQGCVT yielded an amyloid nucleation score of 0.211 ± 0.32.
The result for NDVGSLWVIADVGIFYVQDK reads -0.662 ± 0.61; that for NDWFCVVY, -1.48 ± 0.42.
For NEFRDIYGFSVSKLPTGGIC the value was -1.17 ± 0.41; for NEYMYVR, 0.969 ± 0.52.
The result for NFAQWW reads 0.443 ± 0.8.
Regarding NFFRAENVYCSMLFSKGWDW, the amyloid nucleation score turned out to be 6.966 ± 0.049.
For NFIKKGCGKGNLDLFSLRDV the value was “inactive”; for NFILLDLLSLAICASRVLWA, 1.56 ± 0.087; for NFLGGLNRFLNCSSM, -0.683 ± 1.1.
Substance NFMGIIVLNQ returned an amyloid nucleation score of 3.19 ± 0.09.
The result for NFNACIPNKDRSFSNVDVCV reads -1.35 ± 1; that for NFRPCRVLRFGY, 1.03 ± 0.66; that for NFVYMFVKL, 4.97 ± 0.062.
With NFYILLATGSFYAVLGCRQY, the amyloid nucleation score was determined as 2.36 ± 0.12.
The result for NGCSFRGNCCDSGERNVVEV reads 0.071 ± 0.6; that for NGDLCILLTWATWGSTE, 0.686 ± 0.33; that for NGFMVSFV, -1.39 ± 0.41.
The result for NGFNYFKMW reads -1.65 ± 1.1; that for NGGPRAYLDIYDLSGVSDRR, 0.487 ± 0.18; that for NGIQGL, “inactive”.
The result for NGMFLRTRCIRVFAVRRMLQ reads 1.12 ± 0.26.
Take NGTKTP: the amyloid nucleation score came to 0.568 ± 0.47.
For NGTSLTMTYIRKLAFRGLEK the value was 0.215 ± 0.26.
Regarding NGVKEYLGNTSWKCTNRA, the amyloid nucleation score is -0.137 ± 0.5.
The result for NGVQKVVCQGTRLGCVLGLD reads 0.131 ± 0.45; that for NGYRG, 0.376 ± 0.53.
In turn, NHAQMDMKTHVINRLCKE had an amyloid nucleation score of 0.605 ± 0.57.
The result for NHLIV reads -1.09 ± 0.3; that for NHMLL, -0.313 ± 0.76.
For NHSGRYGRRLILRLGFFGVG the value was -0.655 ± 0.28.
Consider NIEVWMFYSLMNMNEA, for which the amyloid nucleation score is -0.509 ± 1.1.
Regarding NIFMWSSTEIHCRWKVFLRL, the amyloid nucleation score was -0.949 ± 0.44.
For NIMSFFHLSLGVDFVHVSPG the value was 0.144 ± 0.19.
The result for NIQDLARSLDRDWTYIGIES reads 3.65 ± 0.079.
Regarding NIRKMSGFVNSYTAYSQGEL, the amyloid nucleation score entry is “inactive”.
The result for NISCNSGSPGSNMTGCQESS reads 0.767 ± 0.8; that for NISHVVNLHAWLYRLL, 3.39 ± 0.13; that for NISMTTWW, 4.71 ± 0.11.
In the case of NIVVVYIEFSGVHPTLVLLW, the amyloid nucleation score was -0.42 ± 0.3.
The result for NKFKG reads 0.19 ± 1.1; that for NKLTVPYTVDVNDTILDRGK, -0.015 ± 0.46.
Substance NKSSLRVCRPLSWNMSMVSN came in with an amyloid nucleation score of 0.593 ± 0.44.
For NKVMGAEGCTGLEL the value was -0.744 ± 0.28.
For NKYYLSNLMTCLAQKLSSSG the value was 0.053 ± 1.1; for NLCSGTIVVFIGCMKAAWFV, 4.39 ± 0.045.
With NLDGCTVIS, the amyloid nucleation score was determined as 0.774 ± 0.51.
For NLFYKKSLRLCYGLLQLRDF the value was “inactive”; for NLGGRFCAGFRRNHTCLGRN, -0.458 ± 0.33; for NLLTPFRLRPKTHLDLYRSC, -0.196 ± 1.1.
Take NLSNELSCI: the amyloid nucleation score entry is “inactive”.
The result for NLSVHAENLDNNRSGAEV reads -0.102 ± 0.76; that for NLSWLVNWMEYVRGRLW, -0.56 ± 0.4; that for NLSYDHPACCKWNRCYVKHR, 1.81 ± 0.14.
The result for NLVVCGNISGCLCYDYSFGK reads 8.187 ± 0.032.
The result for NLYMPDS reads 0.395 ± 0.8.
As to NMFLFLCVRVCGVAFDKGKV, the amyloid nucleation score amounted to 2.28 ± 0.13.
The result for NMFVSSRSM reads 0.585 ± 0.8; that for NMLYHYIDRSCRGAMDHHGR, “inactive”.
The result for NMPEFC reads 0.283 ± 0.21; that for NNCVQTGSGGGGRCLRDTCG, 3.8 ± 0.085; that for NNLATPRQRVWLQVTLPARP, 0.692 ± 0.21.
For NNNFMRTR the value was 2.44 ± 0.066.
Consider NNQYINWMRKCG, for which the amyloid nucleation score was -0.671 ± 0.41.
NNWYILPFAGFWDFGA registered an amyloid nucleation score of 5.341 ± 0.03.
Substance NPEDPQSMLLVVGCVEKN had an amyloid nucleation score of 0.214 ± 0.54.
As to NPGETDQRQSWSCSDCPAFS, the amyloid nucleation score turned out to be 1.51 ± 0.35.
For NPLHP the value was 0.116 ± 0.24; for NPTYYRARGE, 2.96 ± 0.11; for NQLKGYTIYWVL, 4.45 ± 0.063.
For NQLLTVSWYSL the value was 2.76 ± 0.091.
The result for NQRVLLLLKSVLYMMVAK reads “inactive”.
The substance NQTCTE yielded an amyloid nucleation score of 0.7 ± 0.66.
The result for NRCFEGFAVARFDAGRV reads -0.378 ± 1; that for NRDVFWRFLVTTVVYELSSK, “inactive”.
The result for NRDVRCGVRPQHVCFQ reads “inactive”.
For NRFAHNALVAL the value was 4.08 ± 0.062; for NRFQYGCNSGSMTVWGALWF, 0.706 ± 0.81; for NRILWSPNEKLLKHVTQVTL, -0.795 ± 0.61.
NRKSSHYSKNCRTLLHTS: the amyloid nucleation score was -0.097 ± 1.1.
For NRKTSGLYVFRWRKRPR the value was 0.264 ± 0.4; for NRLDNFRHQTEGKRRV, -0.841 ± 1.1; for NRNKAASYNGLYCFDPAIVD, -1.09 ± 0.55.
Consider NRNPYILGYLRPPEVDYWWW, for which the amyloid nucleation score is -0.627 ± 1.1.
For NRQLWYPSINKYFFKSADPL the value was “inactive”.
For NRRGANCVQS the value was -0.372 ± 0.39.
On to NRRYLKPSGPEEGWMMLSGT, for which the amyloid nucleation score was 1.03 ± 0.35.
On to NRTAFPCFLA, for which the amyloid nucleation score was -0.473 ± 0.49.
For NSAPRGQCRSVFGLMYSYSI the value was “inactive”; for NSDCEVPFTWFVMLIGAPGG, -0.393 ± 0.76; for NSDISARCGSCVYLWYVSDD, 8.712 ± 0.048.
For NSFVAIKCIV the value was -0.023 ± 0.33.
The substance NSGSGAAFGVSLHVVNCARS registered an amyloid nucleation score of 0.045 ± 0.79.
For NSGSYTSSFNDLVDTLSVLS the value was “inactive”; for NSIGV, -1.02 ± 0.55; for NSKGN, 0.112 ± 1.1.
Regarding NSNFRLTCTFSSMHYKLARG, the amyloid nucleation score came out at 2.9 ± 0.21.
The result for NSNGEFIKGACHMVRLFGLQ reads 0.098 ± 1; that for NSPMSKSLNRT, 0.347 ± 0.22.
For NSRLEVGSNSKQDLMAMSKT the value was -1.12 ± 0.74; for NSSRGQPHLSNFPIRHHHVN, 0.461 ± 0.66.
For NSVETLMNQRCWVCHTCCVK the value was -0.472 ± 0.64.
Consider NSVRNTYWKAPGNLTEGVSG, for which the amyloid nucleation score is -0.054 ± 0.4.
Turning to NTAVSYFNHKSVAFFYFCDL, the amyloid nucleation score is 4.94 ± 0.064.
Take NTEKSIVVRDMIKDSYPFSV: the amyloid nucleation score entry is “inactive”.
The result for NTFQSKDRGQWCSTRNAYKG reads -0.772 ± 0.45.
NTHFFVMRVEFGPWYTSSCS registered an amyloid nucleation score of 2.42 ± 0.21.
The result for NTLLILHIDICYVYSVILTF reads -0.942 ± 0.76.
The result for NTLVMRWCRGCQWKEQLASN reads 1.1 ± 0.41.
For NTRGWDAGS the value was 1.08 ± 0.28.
Substance NTVFLLSFGCCEYYRFWGYL came in with an amyloid nucleation score of 8.34 ± 0.057.
On to NTYLSMEFLLTP, for which the amyloid nucleation score entry was “inactive”.
The result for NVDWCCQICSCFTRIFELLM reads 2.21 ± 0.23; that for NVGGIASLGPFTY, -0.14 ± 0.27; that for NVHCILMSGVMGIQYRWKVL, 0.395 ± 0.51.
Turning to NVHDSLFWQFVIVNYTIGLS, the amyloid nucleation score came out at 3.38 ± 0.042.
In turn, NVIMMDLWVDLAFKSLGYG registered an amyloid nucleation score of 6.291 ± 0.046.
For NVLRRFNCWRYESGFSNFVN the value was -1.38 ± 0.36; for NVVMHRENVYFCLVNLHWTD, 7.837 ± 0.04.
For NWFHVRTDCRRWGGRKVYYN the value was -0.883 ± 1.1; for NWIPGVVEKRSRLSGFWSWL, 0.657 ± 0.23; for NWLKYFYVSDFQWWKGYPHV, -0.067 ± 0.36.
The result for NWVWLKWRITQYFIHSASSS reads 1.43 ± 0.19; that for NWWYSRSRPHMGSSISFSEV, -0.37 ± 0.41.
Substance NYLLMR came in with an amyloid nucleation score of 0.414 ± 0.35.
The result for NYRLQIINGRRSTSVRVQGA reads 0.606 ± 0.36.
NYTGQTFVMTGLISFNPQIG displayed an amyloid nucleation score of 5.79 ± 0.074.
For NYVVE the value was 4.73 ± 0.069; for PAASLRLRELMRYDDWRGVA, 0.03 ± 0.38.
The result for PATLAKIYSVGVGNYHRFVR reads “inactive”; that for PAWSITLVPLLHTGCSDTKR, 0.582 ± 0.31.
